Data reported in publication PMC10554743.
Values belong to the substance of their own block, whether it stands above or below them.

Experiments:
[1] = target: McdB CC domain truncation (Synechococcus elongatus PCC 7942); assay: SEC-MALS; Shodex PROTEIN KW-804; 50 µl at 1.5 mg/ml; 150 mM KCl, 20 mM Tris-HCl pH 8.2; BSA as calibration standard
[2] = target: Se7942 McdB (full-length, wild type) (Synechococcus elongatus PCC 7942); assay: as above
[3] = target: McdB with all six basic residues of the IDR substituted to glutamines (Synechococcus elongatus PCC 7942); assay: as above
[4] = target: McdB with four glutamine substitutions in the CTD; assay: SEC-MALS
[5] = target: McdB with four glutamine substitutions in the CTD; assay: SEC-MALS; remark: listed apart in the source
[6] = target: McdB IDR + CC truncation (Synechococcus elongatus PCC 7942); assay: SEC-MALS; Shodex PROTEIN KW-804; 50 µl at 1.5 mg/ml; 150 mM KCl, 20 mM Tris-HCl pH 8.2; BSA as calibration standard
[7] = target: McdB with all six basic residues of the IDR substituted to glutamines; assay: SEC-MALS
McdB CTD 2Q left = assay: SEC-MALS
[8] = target: McdB CC + CTD truncation (Synechococcus elongatus PCC 7942); assay: SEC-MALS; Shodex PROTEIN KW-804; 50 µl at 1.5 mg/ml; 150 mM KCl, 20 mM Tris-HCl pH 8.2; BSA as calibration standard

- other: multiple (oligomer MW over monomer MW) ([4]; parent: 5.5): 1.8 x
- other: oligomer MW (SEC-MALS) ([4]; parent: 96.4): 31.8 kDa
- other: multiple (oligomer MW over monomer MW) ([5]; parent: 5.5): 1.8 x
- other: oligomer MW (SEC-MALS) ([5]; parent: 96.4): 31.8 kDa
Substance: Se7942 McdB (full-length, wild type) CTD all: … -> … (E->Q, E->Q, E->Q, D->Q at segment positions 1, 2, 9, 11)

- stoichiometry N [6]: 2
Substance: McdB IDR + CC truncation (domain or fragment)

- other: multiple (oligomer MW over monomer MW) (McdB CTD 2Q left; parent: 5.5): 4.5 x
- other: oligomer MW (SEC-MALS) (McdB CTD 2Q left; parent: 96.4): 77.8 kDa
Substance: Se7942 McdB (full-length, wild type) CTD 2Q left: … -> … (E->Q, E->Q at segment positions 1, 2)

The remaining lines, values behind:

Substance: McdB CC domain truncation (domain or fragment)
- stoichiometry N [1]: 2

Substance: Se7942 McdB (full-length, wild type) (natural protein)
- stoichiometry N [2]: 6

Substance: McdB with all six basic residues of the IDR substituted to glutamines (natural protein)
- stoichiometry N [3]: 6

Substance: Se7942 McdB (full-length, wild type) R7Q; K9Q; K10Q; R11Q; R13Q; R18Q
- other: multiple (oligomer MW over monomer MW) ([7]; parent: 5.5): 5.6 x
- other: oligomer MW (SEC-MALS) ([7]; parent: 96.4): 96.1 kDa

Substance: McdB CC + CTD truncation (domain or fragment)
- stoichiometry N [8]: 6
